Results as given in patent US20220177587A1, “METHODS AND USES OF VARIANT CD80 FUSION PROTEINS AND RELATED CONSTRUCTS” (Alpine Immune Sciences, Inc., priority 2018, published 2022).
Where a chain is given by its changes, count along the chain named. Names may count otherwise. “And” between values parts separate entries of the source, which are not always exact repeats. Equal entries are not always repeated.

B1: Y53C, L85R, K89N, A91T, F92P, K93V, R94L, I118V, T120S, I127T, T130A, K169E (protein)
chain: VIHVTKEVKEVATLSCGHNVSVEELAQTRIYWQKEKKMVLTMMSGDMNIWPECKNRTIFDITNNLSIVILALRPSDEGTYECVVRKYENDTPVLEHLAEVTLSVKADFPTPSISDFEVPSSNIRRITCSASGGFPEPHLSWLENGEELNAINTTVSQDPETELYAVSSELDFNMTTNHSFMCLIKYGHLRVNQTFNWNTTKQEHFPDN
B2: T62S, E81V, L85R, K89N, A91T, F92P, K93V, R94L, I118V, T120S, T130A, K169E (protein)
chain: B1 chain with C53Y, T62S, E81V, T127I
B3: L70Q, A91G, I118V, T120S, T130A, K169E (protein)
chain: B1 chain with C53Y, L70Q, R85L, N89K, T91G, P92F, V93K, L94R, T127I
modifications: CD80 v125 ECD
B4: Y53C/L70Q/D90G/T130A/N149D/N152T/H188D (protein)
chain: VIHVTKEVKEVATLSCGHNVSVEELAQTRIYWQKEKKMVLTMMSGDMNIWPECKNRTIFDITNNLSIVIQALRPSDEGTYECVVLKYEKGAFKREHLAEVTLSVKADFPTPSISDFEIPTSNIRRIICSASGGFPEPHLSWLENGEELDAITTTVSQDPETELYAVSSKLDFNMTTNHSFMCLIKYGDLRVNQTFNWNTTKQEHFPDN
B5: K89E, K93E, T130A (protein)
chain: B4 chain with C53Y, Q70L, K89E, G90D, K93E, D149N, T152N, D188H
modifications: CD80 v91 ECD
B6: R29D, Y31L, Q33H, K36G, M38I, T41A, M43R, M47T, A91G, I118V, T120S, I127T, T130A, H188D (protein)
chain: VIHVTKEVKEVATLSCGHNVSVEELAQTDILWHKEGKIVLAMRSGDTNIWPEYKNRTIFDITNNLSIVILALRPSDEGTYECVVLKYEKDGFKREHLAEVTLSVKADFPTPSISDFEVPSSNIRRITCSASGGFPEPHLSWLENGEELNAINTTVSQDPETELYAVSSKLDFNMTTNHSFMCLIKYGDLRVNQTFNWNTTKQEHFPDN
B7: R29D, Y31L, Q33H, K36G, M38I, T41A, M43R, M47T, L70Q, D76G, A91G, S103L, I118V, T120S, I127T, T130A (protein)
chain: B6 chain with L70Q, D76G, S103L, D188H
B8: S21P, R29D, Y31L, Q33H, K36G, M38I, T41A, M43R, M47T, N48I, V68A, E81V, L85R, K89N, A91T, F92P, K93V, R94L,P109H, I126L, K169I (protein)
chain: VIHVTKEVKEVATLSCGHNVPVEELAQTDILWHKEGKIVLAMRSGDTIIWPEYKNRTIFDITNNLSIAILALRPSDEGTYVCVVRKYENDTPVLEHLAEVTLSVKADFHTPSISDFEIPTSNIRRLICSTSGGFPEPHLSWLENGEELNAINTTVSQDPETELYAVSSILDFNMTTNHSFMCLIKYGHLRVNQTFNWNTTKQEHFPDN
B9: R29D, Y31L, Q33H, K36G, M38I, T41A, M43R, M47T, L70Q, E81V, L85R, K89N, A91T, F92P, K93I, R94L, L97R, T130A, L148S (protein)
chain: VIHVTKEVKEVATLSCGHNVSVEELAQTDILWHKEGKIVLAMRSGDTNIWPEYKNRTIFDITNNLSIVIQALRPSDEGTYVCVVRKYENDTPILEHRAEVTLSVKADFPTPSISDFEIPTSNIRRIICSASGGFPEPHLSWLENGEESNAINTTVSQDPETELYAVSSKLDFNMTTNHSFMCLIKYGHLRVNQTFNWNTTKQEHFPDN
B10: H18L, R29D, Y31L, Q33H, K36G, M38I, T41A, M43R, M47T, E81V, L85R, K89N, A91T, F92P, K93V, R94L, F116S, T130A, H188D (protein)
chain: B9 chain with H18L, Q70L, I93V, R97L, F116S, S148L, H188D
B11: H18L, R29D, Y31L, Q33H, K36G, M38I, T41A, M43R, M47T, E81V, L85R, K89N, A91T, F92P, K93V, R94L, I118V, T120S, I127T, T130A, L142S, H188D (protein)
chain: B6 chain with H18L, E81V, L85R, K89N, G91T, F92P, K93V, R94L, L142S
B12: H18L, R29D, Y31L, Q33H, K36G, M38I, T41A, M43R, M47T, P74L, Y80N, E81V, L85R, K89N, A91T, F92P, K93V, R94L, L97R (protein)
chain: B9 chain with H18L, Q70L, P74L, Y80N, I93V, A130T, S148L
B13: C16S, H18L, R29D, Y31L, Q33H, K36G, M38I, T41A, M43R, M47T, E81V, L85R, K89N, A91T, F92P, K93V, R94L, T110A, I118V, H188D (protein)
chain: B9 chain with C16S, H18L, Q70L, I93V, R97L, T110A, I118V, A130T, S148L, H188D
B14: R29D, Y31L, Q33H, K36G, M38I, T41A, M43R, M47T, T62S, E81V, L85R, K89N, A91T, F92P, K93V, R94L, I118V, T120S, T130A, K169E, T175A (protein)
chain: B9 chain with T62S, Q70L, I93V, R97L, I118V, T120S, S148L, K169E, T175A
B15: R29D, Y31L, Q33H, K36G, M38I, T41A, M43R, M47T, I61N, E81V, L85R, K89N, A91T, F92P, K93V, R94F, V104A, I118V, T120S, I126V, T130A (protein)
chain: B9 chain with I61N, Q70L, I93V, L94F, R97L, V104A, I118V, T120S, I126V, S148L
B16: R29D, Y31L, Q33H, K36G, M38I, T41A, M43R, M47T, E81V, L85R, K89N, A91T, F92P, K93V, R94F, I118V, T120S, T130A (protein)
chain: B9 chain with Q70L, I93V, L94F, R97L, I118V, T120S, S148L
B17: H18L, R29D, Y31L, Q33H, K36G, M38I, T41A, M43R, M47T, E81V, L85R, K89N, A91T, F92P, K93V, R94L, I118V, T120S, I127T, T130A, H188D (protein)
chain: B6 chain with H18L, E81V, L85R, K89N, G91T, F92P, K93V, R94L
B18: R29D, Y31L, Q33H, K36G, M38I, T41A, M43R, M47T, L70Q, E81V, L85R, K89N, A91T, F92P, K93V, R94L, I118V, T120S, I127T, T130A (protein)
chain: B9 chain with I93V, R97L, I118V, T120S, I127T, S148L
B19: R29D, Y31L, Q33H, K36G, M38I, T41A, M43R, M47T, E81V, L85R, K89N, A91T, F92P, K93V, R94L, S21P, P74L, Y80N, D90N, T130A, N149S, E162G (protein)
chain: B9 chain with S21P, Q70L, P74L, Y80N, D90N, I93V, R97L, S148L, N149S, E162G
B20: R29D, Y31L, Q33H, K36G, M38I, T41A, M43R, M47T, E81V, L85R, K89N, A91T, F92P, K93V, R94L, H18L, V68M, T130A (protein)
chain: B9 chain with H18L, V68M, Q70L, I93V, R97L, S148L
B21: R29D, Y31L, Q33H, K36G, M38I, T41A, M43R, M47T, E81V, L85R, K89N, A91T, F92P, K93V, R94L, S129L, H188D (protein)
chain: B9 chain with Q70L, I93V, R97L, S129L, A130T, S148L, H188D
B22: R29D, Y31L, Q33H, K36G, M38I, T41A, M43R, M47T, E81V, L85R, K89N, A91T, F92P, K93V, R94L, H18L, P74L, Y80N, T130A, R190S (protein)
chain: B9 chain with H18L, Q70L, P74L, Y80N, I93V, R97L, S148L, R190S

tested on: human pan T cells; test: Anti-CD3 coimmobilization assay, IFN-gamma; assay type: cell-based; conditions: Table E34; culture supernatant, 3 days
Experimental: Costimulatory bioactivity of CD80 fusion variants was determined in anti-CD3 coimmobilization assays. 1 nM or 4 nM mouse anti-human CD3 (OKT3, Biolegends, USA) was diluted in PBS with 1 nM to 80 nM rCD80.Fc variant proteins. This mixture was added to tissue culture treated flat bottom 96-well plates (Corning, USA) overnight to facilitate adherence of the stimulatory proteins to the wells of the plate. The next day, unbound protein was washed off the plates and 100,000 purified human pan T cells (BenTech Bio, US) or human T cell clone BC3 (Astarte Biologics, USA) were added to each well in a final volume of 200 μl of Ex-Vivo 15 media (Lonza, Switzerland). Cells were cultured 3 days before harvesting culture supernatants and measuring human IFN-gamma levels with Duoset ELISA kit (R&D Systems, USA) as described above.

Molecule | Anti-CD3 IFN-gamma Coimmobilization Assay
B1 | 75 pg/mL
B2 | 107 pg/mL
B3 | 115 pg/mL
B4 | 122 pg/mL
B5 | 571 pg/mL
B6 | 125 pg/mL
B7 | 224 pg/mL
B8 | 137 pg/mL
B9 | 101 pg/mL
B10 | 114 pg/mL
B11 | 143 pg/mL
B12 | 18 pg/mL
B13 | 247 pg/mL
B14 | 114 pg/mL
B15 | 288 pg/mL
B16 | 111 pg/mL
B17 | 108 pg/mL
B18 | 162 pg/mL and 135 pg/mL
B19 | 54 pg/mL
B20 | 51 pg/mL
B21 | 87 pg/mL
B22 | 8 pg/mL
